Test results reported in patent US20110301335A1 (published 2011).
Changes are numbered by the printed parent chain.

T1: human TNFR1 on MRC-5 cells (human, UniProt P19438 30-455)
T1 sequence (looked up): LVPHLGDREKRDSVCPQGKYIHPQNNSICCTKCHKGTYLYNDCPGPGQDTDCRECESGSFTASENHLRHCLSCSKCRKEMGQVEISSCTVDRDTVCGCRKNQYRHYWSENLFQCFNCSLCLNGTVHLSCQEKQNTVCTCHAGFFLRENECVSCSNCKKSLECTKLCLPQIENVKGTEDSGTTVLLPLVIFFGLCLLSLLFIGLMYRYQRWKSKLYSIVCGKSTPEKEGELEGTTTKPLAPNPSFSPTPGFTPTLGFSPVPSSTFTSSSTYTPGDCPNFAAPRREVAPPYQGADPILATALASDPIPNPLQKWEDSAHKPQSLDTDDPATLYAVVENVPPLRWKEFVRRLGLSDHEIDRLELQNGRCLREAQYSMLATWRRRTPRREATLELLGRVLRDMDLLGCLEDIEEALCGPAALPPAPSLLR

B1: DMS0134 (bispecific antibody)
chain: EVQLLESGGGLVQPGGSLRLSCAASGFTFFKYSMGWVRQAPGKGLEWVSQISDTADRTYYAHSVKGRFTISRDNSKNTLYLQMNSLRAEDTAVYYCAIYTGRWVPFEYWGQGTLVTVSSASTDIQMTQSPSSLSASVGDRVTITCRASRPIGTTLSWYQQKPGKAPKLLILWNSRLQSGVPSRFSGSGSGTDFTLTISSLQPEDFATYYCAQAGTHPTTFGQGTKVEIKR
B2: DMS0132 (bispecific antibody)
chain: B1 chain with F30V
B3: DMS0135 (bispecific antibody)
chain: B1 chain with A61S
B4: DMS0133 (bispecific antibody)
chain: B1 chain with V104A
B5: DMS0121 (bispecific antibody)
chain: EVQLLESGGGLVQPGGSLRLSCAASGFTFVKYSMGWVRQAPGKGLEWVSQISNTADRTYYAHSVKGRFTISRDNSKNTLYLQMNSLRAEDTAVYYCAIYTGRWVPFEYWGQGTLVTVSSASGGGGSGGGGSGGGGSDIQMTQSPSSLSASVGDRVTITCRASRPIGTTLSWYQQKPGKAPKLLILWNSRLQSGVPSRFSGSGSGTDFTLTISSLQPEDFATYYCAQAGTHPTTFGQGTKVEIKR
B6: DMS0168 (bispecific antibody)
chain: EVQLLESGGGLVQPGGSLRLSCAASGFTFVKYSMGWVRQAPGKGLEWVSQISNTADRTYYAHSVKGRFTISRDNSKNTLYLQMNSLRAEDTAVYYCAIYTGRWVPFEYWGQGTLVTVSSASTSGPSDIQMTQSPSSLSASVGDRVTITCRASQSIIKHLKWYQQKPGKAPKLLIYGASRLQSGVPSRFSGSGSGTDFTLTISSLQPEDFATYYCQQGARWPQTFGQGTKVEIKRAAAEQKLISEEDLN
B7: DMS0118 (bispecific antibody)
chain: EVQLLESGGGLVQPGGSLRLSCAASGFTFVKYSMGWVRQAPGKGLEWVSQISNTADRTYYAHSVKGRFTISRDNSKNTLYLQMNSLRAEDTAVYYCAIYTGRWVPFEYWGQGTLVTVSSASTSGPSDIQMTQSPSSLSASVGDRVTITCRASQWIGSQLSWYQQKPGKAPKLLIMWRSSLQSGVPSRFSGSGSGTDFTLTISSLQPEDFATYYCAQGLMKPMTFGQGTKVEIKR
B8: DMS0124 (bispecific antibody)
chain: EVQLLESGGGLVQPGGSLRLSCAASGFTFVKYSMGWVRQAPGKGLEWVSQISNTADRTYYAHSVKGRFTISRDNSKNTLYLQMNSLRAEDTAVYYCAIYTGRWVPFEYWGQGTLVTVSSASGGGGSGGGGSGGGGSDIQMTQSPSSLSASVGDRVTITCRASQWIGSQLSWYQQKPGKAPKLLIMWRSSLQSGVPSRFSGSGSGTDFTLTISSLQPEDFATYYCAQGLMKPMTFGQGTKVEIKR
B9: DMS0111 (bispecific antibody)
chain: B1 chain with F30V, D53N
B10: DMS0112 (bispecific antibody)
chain: B1 chain with F30V, D53N, T154M, W172F, N173G
B11: DMS0188 (bispecific antibody)
chain: EVQLLESGGGLVQPGGSLRLSCAASGFTFVKYSMGWVRQAPGKGPEWVSQISNTGDRTYYADSVKGRFTISRDNSKNTLYLQMNSLRAEDTAVYYCAIYTGRWEPFDYWGQGTLVTVSSASTSGPSDIQMTQSPSSLSASVGDRVTITCRASRPIGTMLSWYQQKPGKAPKLLILFGSRLQSGVPSRFSGSGSGTDFTLTISSLQPEDFATYYCAQAGTHPTTFGQGTKVEIKRAAAEQKLISEEDLN
B12: DMS0163 (bispecific antibody)
chain: B11 chain with F176A, G177F
B13: DMS0169 (bispecific antibody)
chain: B11 chain with P45L, G55A, D62H, E104V, D107E
B14: DMS0184 (bispecific antibody)
chain: EVQLLESGGGLVQPGGSLRLSCAASGFTFVKYSMGWVRQAPGKGPEWVSQISNTGDRTYYADSVKGRFTISRDNSKNTLYLQMNSLRAEDTAVYYCAIYTGRWEPFDYWGQGTLVTVSSASTSGPSDIQMTQSPSSLSASVGDRVTITCRASRPIGTTLSWYQQKPGKAPKLLIWFGSRLQSGVPSRFSGSGSGTDFTLTISSLQPEDFATYYCAQAGTHPTTFGQGTKVEIKR
B15: DMS0116 (bispecific antibody)
chain: B14 chain with P45L, G55A, D62H, E104V, D107E, T158M, W175L
B16: DMS0115 (bispecific antibody)
chain: B14 chain with P45L, G55A, D62H, E104V, D107E, W175L, F176W, G177N
B17: DMS0182 (bispecific antibody)
chain: EVQLLESGGGLVQPGGSLRLSCAASGFTFVKYSMGWVRQAPGKGPEWVSQISNTGDRTYYADSVKGRFTISRDNSKNTLYLQMNSLRAEDTAVYYCAIYTGRWEPFDYWGQGTLVTVSSASTDIQMTQSPSSLSASVGDRVTITCRASRPIGTTLSWYQQKPGKAPKLLIWFGSRLQSGVPSRFSGSGSGTDFTLTISSLQPEDFATYYCAQAGTHPTTFGQGTKVEIKRAAAEQKLISEEDLN
B18: DMS0186 (bispecific antibody)
chain: B17 chain with T154M, W171L
B19: DMS0114 (bispecific antibody, V domains shown)
VH: EVQLLESGGGLVQPGGSLRLSCAASGFTFVKYSMGWVRQAPGKGLEWVSQISNTADRTYYAHSVKGRFTISRDNSKNTLYLQMNSLRAEDTAVYYCAIYTGRWRPFEYWGQGTLVTVSS
B20: DMS0122 (bispecific antibody, V domains shown)
VH: B19 VH with N53D, A55G, T58R, A61D, H62D, R104A
B21: DMS0117 (bispecific antibody, V domains shown)
VH: B19 VH with N53D, A55G, T58R, A61D, H62D, R104K
B22: DOM1h-574 (other)
VH: B19 VH with A55G, D56G, R57H, H62D, I98K, R104E, E107D
B23: DOM1h-574-19 (other)
VH: B19 VH with V30G, G44D, A55G, R57H, H62D, R104E, E107D
B24: DOM1h-574-17 (other)
VH: B19 VH with L45P, A55G, R57H, H62D, R104E, E107D
B25: DOM1h-574-11 (other)
VH: B19 VH with A55G, D56G, R57H, H62D, I98K, R104E, E107D, Y108H
B26: DOM1h-574-13 (other)
VH: B19 VH with A55G, H62D, I98K, R104E, E107D
B27: DOM1h-574-16 (other)
VH: B19 VH with L45P, A55G, H62D, R104E, E107D
B28: DOM1h-574-12 (other)
VH: B19 VH with A55G, R57H, H62D, I98K, R104E, E107D
B29: DOM1h-574-8 (other)
VH: B19 VH with L45P, A55G, D56G, R57H, H62D, R104E, E107D
B30: DOM1h-574-18 (other)
VH: B19 VH with V30G, G44D, A55G, H62D, R104E, E107D
B31: DOM1h-574-15 (other)
VH: B19 VH with A55G, R57H, H62D, R104E, E107D

target: mouse TNFR1 on L929 cells (mouse) (UniProt P25118); assay: cell-based or functional assay
Sequence (P25118 30-454): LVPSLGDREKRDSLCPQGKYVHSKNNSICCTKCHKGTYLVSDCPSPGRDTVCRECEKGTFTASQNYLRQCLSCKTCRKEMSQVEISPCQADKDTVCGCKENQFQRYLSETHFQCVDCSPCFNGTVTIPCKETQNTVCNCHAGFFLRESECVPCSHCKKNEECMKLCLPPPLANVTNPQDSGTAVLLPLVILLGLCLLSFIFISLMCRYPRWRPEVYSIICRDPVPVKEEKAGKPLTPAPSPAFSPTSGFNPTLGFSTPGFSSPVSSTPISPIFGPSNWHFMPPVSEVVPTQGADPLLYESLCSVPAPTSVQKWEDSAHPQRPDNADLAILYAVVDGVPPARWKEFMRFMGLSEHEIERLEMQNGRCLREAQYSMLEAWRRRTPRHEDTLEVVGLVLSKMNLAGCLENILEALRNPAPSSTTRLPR

Row | L929 ND50 [nM] | Binder
1 | 6.52 | B1
2 | 6.8 | B2
3 | 5.9 | B3
4 | 4.2 | B4

target: T1, human TNFR1 on MRC-5 cells; assay: cell-based or functional assay

Row | MRC5 (ND50 in nM) [nM] | ND50 (MRC5) [nM] | MRC5 ND50 [nM] | Binder
5 | 1.8 |  |  | B5
6 |  | 16 |  | B6
7 | 1.4 |  |  | B7
8 | 1.9 |  |  | B8
9 | 1.6 |  |  | B9
10 | 1.3 |  |  | B10
11 |  |  | 0.96 | B1
12 |  |  | 1.04 | B2
13 |  |  | 1.17 | B3
14 |  |  | 0.99 | B4
15 |  | 17 |  | B11
16 |  | 12 |  | B12
17 |  | 2.7 |  | B13
18 |  | 19 |  | B14
19 | 1.7 |  |  | B15
20 | 1.7 |  |  | B16
21 |  | 6 |  | B17
22 |  | 20 |  | B18

target: T1, human TNFR1 on MRC-5 cells; assay: cell-based or functional assay; remark: another data set of the same source

Row | MRC5 (ND50 in nM) [nM] | Binder
23 | 3.7 | B19
24 | 1.5 | B20
25 | 25.9 | B21

target: T1, human TNFR1 on MRC-5 cells; assay: cell-based or functional assay; remark: another data set of the same source

Row | MRC-5 EC50, fold of the EC50 of DOM1h-574-16 [fold] | MRC-5 EC50 [nM] | Binder
26 | ~200 |  | B22
27 |  | 140 | B23
28 |  | 20 | B24
29 |  | 800 | B25
30 |  | 300 | B26
31 |  | 8 | B27
32 |  | 130 | B28
33 |  | 10 | B29
34 |  | 17 | B30
35 |  | 300 | B31
